Here are results for three substances from patent US20250009808A1.

For the assay, the target named is rat RT1A class I histocompatibility antigen (rat (Rattus norvegicus)) (UniProt P16391). Kind of assay: heterogeneous rat liver cells incubated with antibody; cell count of retained versus flow-through fractions.
UniProt P16391, sequence (P16391 25-371 limits assumed): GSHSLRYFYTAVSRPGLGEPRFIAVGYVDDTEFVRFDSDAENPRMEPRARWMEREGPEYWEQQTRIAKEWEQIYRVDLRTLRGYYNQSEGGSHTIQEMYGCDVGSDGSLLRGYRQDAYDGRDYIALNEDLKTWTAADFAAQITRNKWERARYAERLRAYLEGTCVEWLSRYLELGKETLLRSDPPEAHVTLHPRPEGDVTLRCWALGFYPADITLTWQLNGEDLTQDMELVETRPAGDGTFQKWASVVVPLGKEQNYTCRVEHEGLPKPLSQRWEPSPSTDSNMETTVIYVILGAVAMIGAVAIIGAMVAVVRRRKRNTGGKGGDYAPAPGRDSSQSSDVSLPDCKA
“anti-RT1A monoclonal antibody IgG1 MRC clone OX-18” gave a percent of total cells in the population bound of 60%. The same measure for “anti-RT1A monoclonal antibody IgG1 clone F16-4-4”: above 60%. “anti-RT1A monoclonal antibody IgG2a MRC clone OX-27” displayed a percent of total cells in the population bound below 10%.
